{
  "source": "patent US11312773B2",
  "about": "“Anti-PD-L1 antibody” (Fuso Pharmaceutical Industries, Ltd., priority 2016, dated 2022)",
  "key": {"canine PD-L1": {"test_system": "canine PD-L1", "experiment": "Flow cytometry cross-reactivity with canine PD-L1 expressing cells", "format": "binding", "description": "COS-7 cells were subcultured at a density of 5×10^4 cells/cm^2 in 6-well plates, and then cultured overnight in RPMI 1640 medium containing 10% inactivated fetal bovine serum and 0.01% L-glutamine at 37° C. in the presence of 5% CO2. The pEGFP-N2-cPD-1, pEGFP-N2-cPD-L1 or pEGFP-N2 (negative control) was introduced into COS-7 cells at 0.4 μg/cm^2 using Lipofectamine 2000 (Invitrogen). The cells were cultured for 48 hours (cPD-1-EGFP expressing cell and cPD-L1-EGFP expressing cell). In order to confirm the expression of canine PD-1 and PD-L1 in the thus prepared expressing cells, intracellular localization of enhanced green fluorescent protein (EGFP) was visualized with an inverted confocal laser microscope LSM700 (ZEISS) (Maekawa N, Konnai S, Ikebuchi R. Okagawa T, Adachi M, Takagi S, Kagawa Y. Nakajima C, Suzuki Y, Murata S, Ohashi K. PLoS One. 2014 Jun. 10; 9(6):e98415).\nIn order to identify rat anti-bovine PD-L1 monoclonal antibody showing cross-reactivity with canine PD-L1, flow cytometry was performed using the anti-bovine PD-L1 antibody prepared in 2.1 above. The anti-bovine PD-L1 antibody (10 μg/ml) was reacted with 2×10^5-1×10^6 cells at room temperature for 30 min. After washing, the anti-bovine PD-L1 antibody was detected with allophycocyanine-labeled anti-rat Ig goat antibody (Beckman Coulter). FACS Verse (Becton, Dickinson and Company) was used for analysis. […]"}, "ovine PD-L1": {"test_system": "ovine PD-L1", "experiment": "Flow cytometry reactivity with ovine PD-L1-EGFP expressing COS-7 cells", "format": "binding", "settings": "10 μg/ml", "description": "COS-7 cells were subcultured at a density of 5×10^4 cells/cm^2 in 6-well plates, and then cultured overnight in RPMI 1640 medium containing 10% inactivated fetal bovine serum and 0.01% L-glutamine at 37° C. in the presence of 5% CO2. The pEGFP-N2-ovPD-1, pEGFP-N2-ovPD-L1, pEGFP-N2-poPD-1, pEGFP-N2-poPD-L1 or pEGFP-N2 (negative control) was introduced into COS-7 cells at 0.4 μg/cm^2 using Lipofectamine 2000 (Invitrogen). The cells were cultured for 48 hours (ovPD-1-EGFP expressing cell, ovPD-L1-EGFP expressing cell, poPD-1-EGFP expressing cell, and poPD-L1-EGFP expressing cell). In order to confirm the expression of ovine PD-1, ovine PD-L1, porcine PD-1 and porcine PD-L1 in the thus prepared expressing cells, intracellular localization of EGFP was visualized with an inverted confocal laser microscope LSM700 (ZEISS) or an all-in-one fluorescence microscope BZ-9000 (KEYENCE). It was confirmed by flow cytometry that rat anti-bovine PD-L1 monoclonal antibody cross-reacts with ovine and porcine PD-LL. […] After washing, the cells were reacted with allophycocyanine-labeled anti-rat Ig goat antibody (Beckman Coulter) at room temperature for 30 min. For analysis, FACS Verse (BD Bioscience) was used. As a negative control antibody, rat IgG2a (κ) isotype control (BD Bioscience) was used. For every washing operation and dilution of antibodies, 1% bovine serum albumin supplemented PBS was used."}, "ovine PD-1/PD-L1 binding": {"test_system": "ovine PD-1/PD-L1 binding", "experiment": "Ovine PD-1/PD-L1 binding inhibition test (PD-1-EGFP COS-7 cells and PD-L1-Ig)", "settings": "antibody 0-50 μg/ml, ovine PD-L1-Ig 1 μg/ml", "description": "Using ovine PD-1-EGFP expressing COS-7 cells and ovine PD-L1-Ig recombinant protein, or porcine PD-1-EGFP expressing COS-7 cells and porcine PD-L1-Ig recombinant protein, inhibition of ovine or porcine PD-1/PD-L1 binding by rat anti-bovine PD-L1 antibody […] was tested. […] Subsequently, the antibody 4G12 was reacted with 2×10^5 ovine PD-1-EGFP expressing COS-7 cells or porcine PD-1-EGFP expressing COS-7 cells at 37° C. for 30 min. After washing, ovine PD-L1-Ig or porcine PD-L1-Ig bound to cell surfaces was detected with Alexa Fluor 647-labeled anti-rabbit IgG (H+L) goat F(ab′)2 (Life Technologies). For analysis, FACS Verse (BD Biosciences) was used. As a negative control antibody, rat IgG2a (κ) isotype control (BD Biosciences) was used. Taking the proportion of PD-L1-Ig bound cells without antibody addition as 100%, the proportion of PD-L1-Ig bound cells at each antibody concentration was shown as relative value."}},
  "data": [
    {"molecule": "4G12: rat anti-bovine PD-L1 monoclonal antibody; VL SEQ ID NO: 1, VH SEQ ID NO: 2 (antibody, listed as Rattus norvegicus, V domains shown) VH: MGWSQIILFLVAAATCVHSQVQLQQSGAELVKPGSSVKISCKASGYTFTSNFMHWVKQQPGNGLEWIGWIYPEYGNTKYNQKFDGKATLTADKSSSTAYMQLSSLTSEDSAVYFCASEEAVISLVYWGQGTLVTVSS VL: MESQTHVLISLLLSVSGTYGDIAITQSPSSVAVSVGETVTLSCKSSQSLLYSENQKDYLGWYQQKPGQTPKPLIYWATNRHTGVPDRFTGSGSGTDFTLIISSVQAEDLADYYCGQYLVYPFTFGPGTKLELK", "values": [
      {"measurement": "Cross-reactivity with / binding to canine PD-L1", "setting": "canine PD-L1", "value": "showed cross-reaction with canine PD-L1"},
      {"measurement": "Binding to ovine PD-L1", "setting": "ovine PD-L1", "value": "binds to ovine and porcine PD-L1"},
      {"measurement": "Inhibition of ovine PD-1/PD-L1 binding", "setting": "ovine PD-1/PD-L1 binding", "value": "capable of inhibiting"}
    ]}
  ]
}
